Experimental findings from PMC11285941 are described below.

The experiment concerns the target ALTO with a NanoBiT tag at its N-terminus (Merkel cell polyomavirus). Briefly: split reporter (BiFC, NanoBiT); NanoBiT in live HEK293 cells, 50 ng LgBiT + 50 ng SmBiT plasmid, 20-24 hours after transfection, NanoGlo reagent, luminescence; an interaction counts when the reading is tenfold above the LgBiT construct with the SmBiT negative control.

With “STING-LgBiT (from UniProt Q86WV6 1-379) (natural protein)”, the luminescence against the LgBiT-tagged construct with the SmBiT negative control was more than 10 fold.

B1: LgBiT-TBK1 (enzyme)
chain: MQSTSNHLWLLSDILGQGATANVFRGRHKKTGDLFAIKVFNNISFLRPVDVQMREFEVLKKLNHKNIVKLFAIEEETTTRHKVLIMEFCPCGSLYTVLEEPSNAYGLPESEFLIVLRDVVGGMNHLRENGIVHRDIKPGNIMRVIGEDGQSVYKLTDFGAARELEDDEQFVSLYGTEEYLHPDMYERAVLRKDHQKKYGATVDLWSIGVTFYHAATGSLPFRPFEGPRRNKEVMYKIITGKPSGAISGVQKAENGPIDWSGDMPVSCSLSRGLQVLLTPVLANILEADQEKCWGFDQFFAETSDILHRMVIHVFSLQQMTAHKIYIHSYNTATIFHELVYKQTKIISSNQELIYEGRRLVLEPGRLAQHFPKTTEENPIFVVSREPLNTIGLIYEKISLPKVHPRYDLDGDASMAKAITGVVCYACRIASTLLLYQELMRKGIRWLIELIKDDYNETVHKKTEVVITLDFCIRNIEKTVKVYEKLMKINLEAAELGEISDIHTKLLRLSSSQGTIETSLQDIDSRLSPGGSLADAWAHQEGTHPKDRNVEKLQVLLNCMTEIYYQFKKDKAERRLAYNEEQIHKFDKQKLYYHATKAMTHFTDECVKKYEAFLNKSEEWIRKMLHLRKQLLSLTNQCFDIEEEVSKYQEYTNELQETLPQKMFTASSGIKHTMTPIYPSSNTLVEMTLGMKKLKEEMEGVVKELAENNHILERFGSLTMDGGLRNVDCL
Turning to B1, the luminescence against the LgBiT-tagged construct with the SmBiT negative control was more than 10 fold.
